Data: PMC7865317, “Coupling of a Novel TIMP3 Peptide to Carboxypeptidase G2 for Pro-Drug Activation at the Tumour Site” (Molecules, 2021)

Target: T1, VEGFR2-immunoglobulin Fc fusion protein (UniProt P35968 20-764)
T1 construct: VEGFR2 (vascular endothelial growth factor receptor 2); Probably the extracellular domain of VEGFR2 fused to an IgG Fc, as sold by R&D Systems (surmise); also called VEGFR2-Fc; source: bought: R&D Systems
Test: BLI; BLItz system; VEGFR2-Fc (5 uL at 250 ug/mL) loaded on protein A-coated probes for 300 s; CPG2 or CPG2-p700 in the drop holder, five runs at 600 nM to 10 uM; PBS
Conditions: both partners purified

T1 sequence (P35968 20-764): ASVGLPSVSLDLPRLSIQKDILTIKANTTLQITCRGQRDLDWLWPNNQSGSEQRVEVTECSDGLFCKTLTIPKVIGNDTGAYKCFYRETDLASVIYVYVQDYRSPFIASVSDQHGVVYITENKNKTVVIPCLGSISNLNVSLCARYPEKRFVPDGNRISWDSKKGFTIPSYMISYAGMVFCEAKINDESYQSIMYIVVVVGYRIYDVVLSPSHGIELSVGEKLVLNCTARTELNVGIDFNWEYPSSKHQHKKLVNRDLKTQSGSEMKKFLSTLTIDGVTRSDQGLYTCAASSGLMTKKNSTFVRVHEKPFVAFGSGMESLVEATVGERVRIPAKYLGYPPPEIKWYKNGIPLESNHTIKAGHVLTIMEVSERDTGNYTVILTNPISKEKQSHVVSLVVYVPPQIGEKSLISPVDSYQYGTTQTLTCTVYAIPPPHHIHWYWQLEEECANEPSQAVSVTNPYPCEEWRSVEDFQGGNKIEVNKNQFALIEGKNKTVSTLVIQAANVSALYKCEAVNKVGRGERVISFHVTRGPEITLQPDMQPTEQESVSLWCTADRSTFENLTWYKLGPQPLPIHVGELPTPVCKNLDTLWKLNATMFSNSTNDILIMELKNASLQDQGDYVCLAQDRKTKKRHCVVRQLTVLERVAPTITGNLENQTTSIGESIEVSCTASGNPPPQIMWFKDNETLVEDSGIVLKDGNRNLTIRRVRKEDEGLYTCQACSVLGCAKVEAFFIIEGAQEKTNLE

B1: recombinant codon-optimised carboxypeptidase G2 (CPG2-His) (enzyme, Pseudomonas aeruginosa strain RS-16, UniProt P06621 23-415, looked up)
chain: ALAQKRDNVLFQAATDEQPAVIKTLEKLVNIETGTGDAEGIAAAGNFLEAELKNLGFTVTRSKSAGLVVGDNIVGKIKGRGGKNLLLMSHMDTVYLKGILAKAPFRVEGDKAYGPGIADDKGGNAVILHTLKLLKEYGVRDYGTITVLFNTDEEKGSFGSRDLIQEEAKLADYVLSFEPTSAGDEKLSLGTSGIAYVQVNITGKASHAGAAPELGVNALVEASDLVLRTMNIDDKAKNLRFNWTIAKAGNVSNIIPASATLNADVRYARNEDFDAAMKTLEERAQQKKLPEADVKVIVTRGRPAFNAGEGGKKLVDKAVAYYKEAGGTLGVEERTGGGTDAAYAALSGKPVIESLGLPGFGYHSDKAEYVDISAIPRRLYMAARLIMDLGAGK
notes: carboxypeptidase G2 (CPG2, glucarpidase), gene codon optimised for E. coli (Goda et al. 2009), approximately 1200 bp; Expected size 45 kDa; Cloned NdeI/NotI into pET28a, which may add an N-terminal His tag from the vector (surmise); construct in Supplementary Data S1; also called CPG2 alone; CPG2-only; source: E. coli BL21 (DE3), purified by Ni2+-NTA chromatography from pooled 2 M urea washes of …
Kd: 15 µM
